In patent US20220090139A1:
Like-named read-outs stand apart in the source and are kept apart here.

What was measured:
[1] = target: 10-amber 13-amber hoc-del soc-del T4 heads (bacteriophage T4) (UniProt P04535); assay: in vitro display on T4 heads, pelleting, SDS-PAGE densitometry against gp23* (930 copies)
[2] = target: 10-amber 13-amber hoc-del soc-del T4 heads (bacteriophage T4) (UniProt P04535)
[3] = target: 10-amber 13-amber hoc-del soc-del T4 heads (bacteriophage T4) (UniProt P04535); assay: Soc-TAT displayed on T4(Luci) heads used for transduction (FIG. 28)
[4] = target: 10-amber 13-amber hoc-del soc-del T4 heads (bacteriophage T4) (UniProt P04535); assay: display titration on T4 heads, SDS-PAGE (FIG. 20)
[5] = target: 10-amber 13-amber hoc-del soc-del T4 heads (bacteriophage T4) (UniProt P04535); assay: co-display with Cas9-gRNA RNP on the same T4 head
[6] = target: 10-amber 13-amber hoc-del soc-del T4 heads (bacteriophage T4) (UniProt P04535); assay: display titration on T4 heads, SDS-PAGE (FIG. 21)
[7] = target: 10-amber 13-amber hoc-del soc-del T4 heads (bacteriophage T4) (UniProt P04535); assay: co-display with Cre-Hoc on the same T4 head
[8] = target: 10-amber 13-amber hoc-del soc-del T4 heads (bacteriophage T4) (UniProt P04535); assay: display of RNP on T4 heads through Soc
[9] = target: 10-amber 13-amber hoc-del soc-del T4 heads (bacteriophage T4) (UniProt P04535); assay: display on T4 heads, copies per capsid compared

## Cpf1-Soc (enzyme)
[1]
  Copies/capsid (copies per capsid): 450

## Soc-TAT (from UniProt P03715 1-80)
[2]
  Copies/capsid (copies per capsid): 750
[3]
  copies per capsid (copies per capsid): 520

## β-Gal-Soc (from UniProt P00722 1-1024; P03715 1-80) (enzyme)
[2]
  Copies/capsid (copies per capsid): 320
[4]
  ratio of protein molecules to binding sites at saturation (molecules per binding site): 15 to 20

## Cre-Hoc (enzyme)
[5]
  copies per capsid (molecules per AV): 50
[2]
  Copies/capsid (copies per capsid): 95
[6]
  ratio of protein molecules to binding sites at saturation (molecules per binding site): 15 to 20

## Cre-Soc (enzyme)
[2]
  Copies/capsid (copies per capsid): 630

## GFP-Soc (from UniProt P03715 1-80)
[2]
  Copies/capsid (copies per capsid): 660

## Cas9-gRNA ribonucleoprotein (RNP) complex fused to Soc (from UniProt Q99ZW2 1-1368)
[7]
  copies per capsid (molecules per AV): 270
[8]
  copies per capsid (copies per capsid): 280

## Soc-RGD (from UniProt P03715 1-80)
[9]
  fold copy number against RGD-Hoc: 8.3 fold
[2]
  Copies/capsid (copies per capsid): 710

## RGD-Hoc (from UniProt P18056 1-376)
[2]
  Copies/capsid (copies per capsid): 85

## NLS-Cas9-Soc (from UniProt Q99ZW2 1-1368) (enzyme)
[2]
  Copies/capsid (copies per capsid): 550
